# Reference: the supplement of paper PMC9233669
# Variants at the floor of the assay were thinned out.
# Legend:
# biotinyl-Met-oxazolone = assay: self-aminoacylation, catalytic enhancement (BMO) (fold over background); higher = more active; k-Seq, kA / k0A0; sequences stand for … in GGGAAUGGAUCCACAUCUACGAAUUC…UUCACUGCAGACUUGACGAAGCUG
# How it was run: (§1)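 Each biotinyl-aminoacyl-oxazolone, at 2–1250 μM, was incubated with mutagenized RNA pools (0.43 μM) carrying a 21-nt variable region. The 50 μL reactions contained HEPES/NaCl/KCl/MgCl2/CaCl2 buffer with 5% acetonitrile at pH 6.9–7.0 and ran for 90 minutes at room temperature. After streptavidin capture, RNA was measured by qPCR in triplicate and by Illumina sequencing, and catalytic enhancement was calculated as median kA over the uncatalyzed rate from a pseudo-first-order fit of per-sequence fraction reacted.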
# biotinyl-Leu-oxazolone = assay: self-aminoacylation, catalytic enhancement (BLO) (fold over background); higher = more active; k-Seq, kA / k0A0; sequences stand for … in GGGAAUGGAUCCACAUCUACGAAUUC…UUCACUGCAGACUUGACGAAGCUG
# How it was run: as §1
# biotinyl-Trp-oxazolone = assay: self-aminoacylation, catalytic enhancement (BWO) (fold over background); higher = more active; k-Seq, kA / k0A0; sequences stand for … in GGGAAUGGAUCCACAUCUACGAAUUC…UUCACUGCAGACUUGACGAAGCUG
# How it was run: as §1
# biotinyl-Ile-oxazolone = assay: self-aminoacylation, catalytic enhancement (BIO) (fold over background); higher = more active; k-Seq, kA / k0A0; sequences stand for … in GGGAAUGGAUCCACAUCUACGAAUUC…UUCACUGCAGACUUGACGAAGCUG
# How it was run: as §1
# biotinyl-Val-oxazolone = assay: self-aminoacylation, catalytic enhancement (BVO) (fold over background); higher = more active; k-Seq, kA / k0A0; sequences stand for … in GGGAAUGGAUCCACAUCUACGAAUUC…UUCACUGCAGACUUGACGAAGCUG
# How it was run: as §1
# biotinyl-Phe-oxazolone = assay: self-aminoacylation, catalytic enhancement (BFO) (fold over background); higher = more active; k-Seq, kA / k0A0; sequences stand for … in GGGAAUGGAUCCACAUCUACGAAUUC…UUCACUGCAGACUUGACGAAGCUG
# How it was run: as §1
Sequence,self-aminoacylation (biotinyl-Met-oxazolone),self-aminoacylation (biotinyl-Leu-oxazolone),self-aminoacylation (biotinyl-Trp-oxazolone),self-aminoacylation (biotinyl-Ile-oxazolone),self-aminoacylation (biotinyl-Val-oxazolone),self-aminoacylation (biotinyl-Phe-oxazolone)
AGUCACCUUGGUCAUCGGGUG [Fam2.2 aminoacylation ribozyme variant],5.4,6.96,5.71,4.89,4.85,49.8
AGUCACGUAGGUCAUCGGGUG [Fam2.2 aminoacylation ribozyme variant],5.11,5.72,6.71,3.96,5.07,52.9
AGUGCCCUGGUCAUCGAGUGA [Fam2.1 aminoacylation ribozyme variant],12.5,14.5,13.6,6.36,5.79,67.6
AUAACCAUGGUCAUCGAGUGA [Fam2.1 aminoacylation ribozyme variant],7.91,7.68,8.43,3.91,3.7,23.8
AUAACCCUAGUCAUCGAGUGA [Fam2.1 aminoacylation ribozyme variant],5.44,5.25,6.64,2.68,2.97,5.43
AUAACCCUGGACAUCGAGUGA [Fam2.1 aminoacylation ribozyme variant],6.69,6.63,5.65,3.02,2.47,28.8
AUAACCCUGGUAAUCGAGUGA [Fam2.1 aminoacylation ribozyme variant],7.93,8.57,9.38,3.97,3.58,42.6
AUAACCCUGGUCAUAGAGUGA [Fam2.1 aminoacylation ribozyme variant],8.34,8.65,9.78,3.62,3.61,49
AUAACCCUGGUCAUCCAGUGA [Fam2.1 aminoacylation ribozyme variant],5.52,6.28,6.17,3.62,3.21,22.8
AUAACCCUGGUCAUCGAAUGA [Fam2.1 aminoacylation ribozyme variant],1.07,0.798,0.785,0.882,0.954,0.579
AUAACCCUGGUCAUCGAGCGA [Fam2.1 aminoacylation ribozyme variant],1.58,2.88,1.52,1.62,1.59,1.91
AUAACCCUGGUCAUCGAUUGA [Fam2.1 aminoacylation ribozyme variant],0.883,1.02,0.392,0.94,0.974,0.646
AUAACCCUGGUCAUCUAGUGA [Fam2.1 aminoacylation ribozyme variant],8.88,9.2,10.1,4.52,4.77,45.7
AUAACCCUUGUCAUCGAGUGA [Fam2.1 aminoacylation ribozyme variant],6.3,6.26,7.89,3.29,3.13,21.5
AUACACCUACGUCAUCGGGUG [Fam2.2 aminoacylation ribozyme variant],4.6,5.2,3.83,3.12,2.49,31.8
AUACACCUAGGGCAUCGGGUG [Fam2.2 aminoacylation ribozyme variant],2.83,3.71,4.14,2.99,2.43,17.1
AUACACCUAGGUCAGCGGGUG [Fam2.2 aminoacylation ribozyme variant],3.8,3.49,3.08,2.29,2.15,15.5
AUACACCUAGGUCAUAGGGUG [Fam2.2 aminoacylation ribozyme variant],1.23,1.36,2.14,1.35,1.43,3.76
AUACACCUAGGUCAUCGGGGG [Fam2.2 aminoacylation ribozyme variant],1.29,1.39,1.22,1.85,1.73,4.96
AUACACCUAGGUCAUCGGGUG [Fam2.2 aminoacylation ribozyme variant],3.88,3.88,4.29,2.93,2.96,19.8
AUACACCUAGGUCAUCGGGUU [Fam2.2 aminoacylation ribozyme variant],2.15,2.79,2.69,2.4,2.14,1.76
AUACACCUAGGUCAUGGGGUG [Fam2.2 aminoacylation ribozyme variant],3.51,3.49,3.4,2.52,2.26,18.6
AUACACCUGGGUCAUCGGGUG [Fam2.2 aminoacylation ribozyme variant],4.39,4.41,3.69,3.31,3.54,14.8
AUACACCUUGGUCAUCGGGUG [Fam2.2 aminoacylation ribozyme variant],3.63,4.72,4.4,3.47,2.89,19.9
AUACUGCAAACAAUCGGUCUG [Fam1A.1 aminoacylation ribozyme variant],1.09,1.18,1.44,1.08,1.05,2.49
AUACUUCAAACAAGCGGUCUG [Fam1A.1 aminoacylation ribozyme variant],0.884,1.01,0.889,0.977,0.986,0.83

Sequence,self-aminoacylation (biotinyl-Met-oxazolone),self-aminoacylation (biotinyl-Leu-oxazolone),self-aminoacylation (biotinyl-Trp-oxazolone),self-aminoacylation (biotinyl-Ile-oxazolone),self-aminoacylation (biotinyl-Val-oxazolone),self-aminoacylation (biotinyl-Phe-oxazolone)
AUACUUCAAACAAUAGGUCUG [Fam1A.1 aminoacylation ribozyme variant],0.812,0.835,0.803,1.08,0.923,1.25
AUACUUCAAACAAUCGAUCUG [Fam1A.1 aminoacylation ribozyme variant],0.535,0.485,0.648,0.684,0.59,0.915
AUACUUCAAACAAUCGUUCUG [Fam1A.1 aminoacylation ribozyme variant],0.81,0.706,0.897,0.709,0.745,1.23
AUACUUCAAACCAUCGGUCUG [Fam1A.1 aminoacylation ribozyme variant],0.774,0.902,1.07,1.1,0.917,0.887
AUACUUCAAGCAAUCGGUCUG [Fam1A.1 aminoacylation ribozyme variant],0.824,0.853,1.48,0.786,0.77,2.15
AUCACCCCGGUCAUCGAGUGA [Fam2.1 aminoacylation ribozyme variant],8.33,10.2,9.73,4.51,4.47,52.6
AUCACCCUGGUCAUAGAGUGA [Fam2.1 aminoacylation ribozyme variant],13.6,13.2,13.2,5.17,4.92,85.7
AUCACCCUGGUCAUCCAGUGA [Fam2.1 aminoacylation ribozyme variant],6.56,7.91,6.77,4.34,3.61,41.2
AUCACUCUGGUCAUCGAGUGA [Fam2.1 aminoacylation ribozyme variant],3.12,3.85,4.03,3.2,2.9,13.9
AUCAUCCUGGUCAUCGAGUGA [Fam2.1 aminoacylation ribozyme variant],9.33,10.1,10.5,4.91,4.82,36.4
AUCCACAUAGGUCAUCGGGUG [Fam2.2 aminoacylation ribozyme variant],10.1,12.1,8.91,5.82,6.77,78.8
AUCCACCCAGGUCAUCGGGUG [Fam2.2 aminoacylation ribozyme variant],5.87,7.15,7.4,4.15,5.18,40
AUCCACCUAGGUCAUCGGGAG [Fam2.2 aminoacylation ribozyme variant],1.65,1.68,2.19,1.88,2.17,1.03
AUCCACCUAGGUCAUCGGGUC [Fam2.2 aminoacylation ribozyme variant],2.25,1.93,2.68,1.72,2.04,5.86
AUCCACCUAGGUCAUCGGGUU [Fam2.2 aminoacylation ribozyme variant],14.3,19,12,9.74,7.64,71.1
AUCCACCUAGGUCAUCUGGUG [Fam2.2 aminoacylation ribozyme variant],2.77,3.74,2.77,2.26,2.28,26.4
AUCCACCUAGGUCAUGGGGUG [Fam2.2 aminoacylation ribozyme variant],5.64,6.65,5.9,3.54,3.77,56.5
AUCCACCUCGGUCAUCGGGUG [Fam2.2 aminoacylation ribozyme variant],7.86,7.66,7.66,5.06,7,72.4
AUCCACCUUGGUCAUCGGGUG [Fam2.2 aminoacylation ribozyme variant],6.42,7.29,6.99,4.12,5.35,45.5
AUCCCCCUGGUCAUCGAGUGA [Fam2.1 aminoacylation ribozyme variant],5.79,6.5,7.31,3.85,4.12,45.2
AUCGACCUAGGUCAUCGGGUG [Fam2.2 aminoacylation ribozyme variant],5.83,6.35,6.33,4.48,4.44,8.6
AUGAACCUGGUCAUCGAGUGA [Fam2.1 aminoacylation ribozyme variant],5.7,6.61,6.4,3.31,3.17,5.16
AUGACCAUGGUCAUCGAGUGA [Fam2.1 aminoacylation ribozyme variant],7.94,8.09,9.59,4.29,4.28,22.1
AUGACCCAGGUCAUCGAGUGA [Fam2.1 aminoacylation ribozyme variant],4.72,5.25,5.92,2.5,2.5,17.9
AUGACCCCGGUCAUCGAGUGA [Fam2.1 aminoacylation ribozyme variant],6.75,8.55,6.78,3.51,3.3,39.9
